Consider 6 molecules from US20260226176A1 (THERANOVIR, published 2026).

Like-named read-outs stand apart in the source and are kept apart here.

Experiment [1] has as its target T1, native human NRP-1 on the cell surface (human, UniProt O14786 22-923).
T1 construct: whole, on cells; endogenous protein; isoform and glycosaminoglycan state on the cells not defined; also called native NRP-1 on MDA-MB-231 cells; native form of NRP-1 protein on the CTCs cell surface
In words: flow cytometry, MDA-MB-231 cells, 10 ug/ml, +heparinase.

Experiment [2] deals with T2, NRP-1 peptide (Npep).
T2 sequence (peptide): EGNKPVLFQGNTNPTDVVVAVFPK
In words: ELISA, antibody 10 µg/ml, 2 µg immobilised Npep.

In experiment [3] the target is T1, native human NRP-1 on the cell surface. The experiment in a line: flow cytometry, CTC cells mix, 10 ug/ml.
Experiment [4] concerns the target recombinant human NRP-1 (3870-N1-025, Bio-Techne) (human) (UniProt O14786). In words: ELISA, antibody 10 µg/ml, 1 µg immobilised human NRP-1.
Experiment [5] has as its target T1, native human NRP-1 on the cell surface. The experiment in a line: flow cytometry, MDA-MB-231 cells, 10 ug/ml, -heparinase.
Experiment [6] has as its target recombinant murine NRP-1 (5994-N1-050, Bio-Techne) (murine) (UniProt P97333). The experiment in a line: ELISA, antibody 10 µg/ml, 1 µg immobilised murine NRP-1.
In experiment [7] the target is T1, native human NRP-1 on the cell surface. In words: flow cytometry, MDA-MB-231 cells, 40 ug/ml, -chondroitinase.
Experiment [8] shares this target. In words: flow cytometry, CTC cells mix, 25 ug/ml.
The target is the same in experiment [9]. The experiment in a line: flow cytometry, CTC cells mix, 50 ug/ml.
Experiment [10] shares this target. In words: flow cytometry, MDA-MB-231 cells, 40 ug/ml, +chondroitinase.
Experiment [11] has as its target native human NRP-1 on the cell surface (human) (UniProt O14786). In words: flow cytometry, MDA-MB-231 cells, 10 ug/ml, +heparinase.
The target is the same in experiment [12]. In words: flow cytometry, MDA-MB-231 cells, 10 ug/ml, with against without heparinase.
For experiment [13] the target is unchanged. The experiment in a line: flow cytometry, MDA-MB-231 cells, 40 ug/ml, +chondroitinase.
Experiment [14] has the same target. The experiment in a line: flow cytometry, MDA-MB-231 cells, 40 ug/ml, with against without chondroitinase.
Experiment [15] has the same target. In words: flow cytometry, MDA-MB-231 cells, 10 ug/ml, -heparinase.
Experiment [16] has the same target. In words: flow cytometry, MDA-MB-231 cells, 40 ug/ml, -chondroitinase.
Experiment [17] addresses T3, recombinant human NRP-1 (3870-N1-025, Bio-Techne) (human, UniProt O14786 22-856).
T3 construct: extracellular domain; bought protein; also called human recombinant NRP-1
The experiment in a line: ELISA, antibody 10 µg/ml, 1 µg immobilised human NRP-1.

Experiment [18] deals with T4, recombinant murine NRP-1 (5994-N1-050, Bio-Techne) (murine, UniProt P97333 22-856).
T4 construct: extracellular domain; bought protein; also called mouse recombinant NRP-1
T4 sequence (P97333 22-856): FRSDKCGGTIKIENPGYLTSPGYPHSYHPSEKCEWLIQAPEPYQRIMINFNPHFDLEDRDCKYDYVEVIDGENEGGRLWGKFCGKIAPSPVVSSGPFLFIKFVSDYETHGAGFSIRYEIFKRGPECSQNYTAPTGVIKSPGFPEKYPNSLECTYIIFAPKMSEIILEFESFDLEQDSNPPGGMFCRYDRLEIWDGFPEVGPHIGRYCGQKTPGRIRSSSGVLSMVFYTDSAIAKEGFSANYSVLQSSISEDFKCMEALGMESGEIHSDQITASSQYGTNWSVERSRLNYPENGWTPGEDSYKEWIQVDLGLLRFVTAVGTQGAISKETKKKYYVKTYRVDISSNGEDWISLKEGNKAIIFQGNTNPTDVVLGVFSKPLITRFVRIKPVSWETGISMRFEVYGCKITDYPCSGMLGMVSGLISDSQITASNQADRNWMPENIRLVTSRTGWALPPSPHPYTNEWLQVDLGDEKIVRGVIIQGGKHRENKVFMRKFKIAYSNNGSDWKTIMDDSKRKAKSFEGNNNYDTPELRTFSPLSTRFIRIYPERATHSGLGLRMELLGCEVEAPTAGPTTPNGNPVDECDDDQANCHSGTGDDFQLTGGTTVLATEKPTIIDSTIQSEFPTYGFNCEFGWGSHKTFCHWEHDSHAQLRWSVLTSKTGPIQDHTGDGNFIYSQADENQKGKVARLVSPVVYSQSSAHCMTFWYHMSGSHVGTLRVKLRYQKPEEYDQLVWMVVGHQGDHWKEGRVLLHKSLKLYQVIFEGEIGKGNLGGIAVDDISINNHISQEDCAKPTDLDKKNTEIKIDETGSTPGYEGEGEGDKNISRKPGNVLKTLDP
In words: ELISA, antibody 10 µg/ml, 1 µg immobilised murine NRP-1.

The target of experiment [19] is T1, native human NRP-1 on the cell surface. In words: flow cytometry, MDA-MB-231 cells, 10 ug/ml, with against without heparinase.
Experiment [20] shares this target. In words: flow cytometry, MDA-MB-231 cells, 40 ug/ml, -chondroitinase. As for the experimental part: (§1) Chondroitinase (C2905, Sigma) was reconstituted in a 0.01% BSA aqueous solution. The MDA-MB-231 cells were treated with chondroitinase (1 U/ml) for 2 hours at 37° C. The cells were detached using cell dissociation solution non-enzymatic (C5914, Sigma). 300,000 cells per condition were washed with 2% FBS in PBS and then incubated with different antibodies of interest or their respective isotype controls at 40 μg/ml for 30 min at 4° C. After wash, an Alexa 488-conjugated anti-human immunoglobulin antibody (20022-1, Biotium) was added at 10 μg/ml for 30 min at 4° C. After a final wash, fluorescence, size and granularity of cells were measured by the LSR Fortessa cytometer (BD Biosciences).
This is another data set of the same source.

For experiment [21] the target is unchanged. In words: flow cytometry, MDA-MB-231 cells, 40 ug/ml, +chondroitinase. As for the experimental part:
as §1
The source holds these as a separate data set.

The target is the same in experiment [22]. The experiment in a line: flow cytometry, MDA-MB-231 cells, 40 ug/ml, with against without chondroitinase. How it is done: as §1
Experiment [23] addresses T5, NRP-1 peptide (Npep).
T5 construct: also called synthetic peptide Npep
T5 peptide: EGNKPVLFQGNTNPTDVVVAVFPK
In words: ELISA, antibody 10 µg/ml, 2 µg immobilised Npep.

For experiment [24], the target named is T1, native human NRP-1 on the cell surface. The experiment in a line: flow cytometry, MDA-MB-231 cells, 10 ug/ml, +heparinase. The source holds these as a separate data set.
For experiment [25] the target is unchanged. The experiment in a line: flow cytometry, MDA-MB-231 cells, 10 ug/ml, -heparinase. The source holds these as a separate data set.

Chain of recombinant murine NRP-1 (5994-N1-050, Bio-Techne) (murine) (P97333 22-856): as the sequence (P97333 22-856) above

Take hIgG4 isotype control (antibody): the percentage of binding in [1] turned out to be 0.24%; in experiment [5] it was 0.2%; in experiment [7], 0.47%. Further, the Absorbance worked out at 0.055 with NRP-1 peptide (Npep) [2], 0.073 in experiment [4] and 0.064 in experiment [6]. For the same molecule, the percent of bound cells turned out to be 2.04% in experiment [3], 3.3% in experiment [8] and 4.04% in [9].
For hIgG1 isotype control (antibody), the percentage of binding in experiment [1] is 0.14%; in [10] it was 0.063%; in experiment [5], 0.17%; in experiment [7] it was 0.1%. Further, the Absorbance with NRP-1 peptide (Npep) [2] is 0.05; in [4], 0.073; in experiment [6], 0.084.
As to mIgG2b isotype control (antibody), the percentage of binding came out at 0.28% in experiment [1], 0.66% in experiment [10], 0.086% in [5] and 0.45% in [7]. In addition, the percent of bound cells in experiment [3] was determined as 3.65%; in experiment [8], 6.66%; in [9], 14.4%.

B1: a-NRP1_SEM (antibody, from another filing, V domains shown)
VH: EVQLVESGGGLVQPGGSLRLSCAASGFSFSSEPISWVRQAPGKGLEWVSSITGKNGYTYYADSVKGRFTISADTSKNTAYLQMNSLRAEDTAVYYCARWGKKVYGMDVWGQGTLVTVSS
VL: DIQMTQSPSSLSASVGDRVTITCRASQSISSYLAWYQQKPGKAPKLLIYGASSRASGVPSRFSGSGSGTDFTLTISSLQPEDFATYYCQQYMSVPITFGQGTKVEIKR
B1: the percentage of binding in experiment [11] stood at 97.7%; in [13], 99.9%; in experiment [15], 96.6%; in [16] it was 100%. For the same molecule, the results for the delta (% of control) in experiment [12] and in experiment [14] were 1.1% and -0.1%, respectively. Besides, the Absorbance with NRP-1 peptide (Npep) [2] was 0.063; in experiment [4], 0.407; in experiment [6], 0.431.

B2: variant 8 a-NRP1_LEP n° 1 (antibody, V domains shown)
VH: EVQLVESGGGLVQPGGSLRLSCAASGFTFSSYSMHWVRQAPGKGLEWVSYISSGSSTIHYADSVKGRFTISRDNAKNSLYLQMNSLRAEDTAVYYCARRHYGSSRYWYFDVWGQGTTVTVSS
VL: EIVLTQSPATLSLSPGERATLSCRASQSVKSYLAWYQQKPGQAPRLLIYYASSRATGIPARFSGSGSGTDFTLTISSLEPEDFAVYYCQQYSESPYTFGQGTKLEIK
notes: humanized variant of 21B10; isotype control hIgG4; also called Var8; variant no 8
As for B2, the Absorbance in experiment [17] came to 0.59; in [18], 0.412; with NRP-1 peptide (Npep) [23] it was 0.475. In addition, the “delta (% of control)” value in [19] is -3.42%; in experiment [22], -14.1%. The percentage of binding in [20] was 75.6%; in experiment [21] it was 61.5%; in experiment [24], 9.88%; in experiment [25], 13.3%.

B3: variant 6 a-NRP1_LEP n° 1 (antibody, V domains shown)
VH: EVQLVESGGGLVQPGGSLRLSCAASGFTFSSYSMHWVRQAPGKGLEWVSYISSGSSTIHYADSVKGRFTISRDNAKNSLYLQMNSLRAEDTAVYYCARRHYGSSRYWYFDVWGQGTTVTVSS
VL: DIQMTQSPSTLSASVGDRVTITCRASQSIKSYLAWYQQKPGKAPKLLIYYASSLASGVPSRFSGSGSGTEFTLTISSLQPDDFATYYCQQYGESSYTFGQGTKLEIK
notes: humanized variant of 21B10; isotype control hIgG4; also called Var6; variant no 6
On to B3, for which the figures for the Absorbance (in [17]; in [18]; in the experiment with NRP-1 peptide (Npep) [23]) were 0.799, 0.72 and 0.684, respectively. Further, the results for the “delta (% of control)” value in experiment [19] and in [22] were -1.6% and -16.2%, respectively. Also, the percentage of binding in experiment [20] stood at 85.3%; in [21], 69.1%; in [24], 11.5%; in experiment [25], 13.1%.
